Changes are numbered by the printed parent chain.
B1: cr936 (nucleic acid)
guide: GTTTAAGAGCTAAGCTGGAAACAGCATAGCAAGTTTAAATAAGGCTAGTCCGTTATCAACTTGAAAAAGTGTCACCGAGTCGGTGAT
modifications: listed as DNA, chemistry not fully specified
B2: cr820 (nucleic acid)
guide: B1 guide with T62G, A65G, A67C, T72G, A86C
modifications: listed as DNA, chemistry not fully specified
B3: cr234 (nucleic acid)
guide: B1 guide with T62C, T72G, A86C
modifications: listed as DNA, chemistry not fully specified
B4: cr408 (nucleic acid)
guide: B1 guide with A65G, T72A, A86T
modifications: listed as DNA, chemistry not fully specified
B5: cr366 (nucleic acid)
guide: B1 guide with A59G, T70C, T72G, C76T, G82A, A86C
modifications: listed as DNA, chemistry not fully specified
B6: cr239 (nucleic acid)
guide: B1 guide with T53C, A64T, T72G, A86C
modifications: listed as DNA, chemistry not fully specified
B7: cr037 (nucleic acid)
guide: B1 guide with G7T, A8C, T72G, A86C
modifications: listed as DNA, chemistry not fully specified
B8: cr423 (nucleic acid)
guide: B1 guide with A59G, T70C, T72G, C73T, G85A, A86C
modifications: listed as DNA, chemistry not fully specified
B9: cr642 (nucleic acid)
guide: B1 guide with A32T, T72G, A86C
modifications: listed as DNA, chemistry not fully specified
B10: cr283 (nucleic acid)
guide: B1 guide with T72A, A86C
modifications: listed as DNA, chemistry not fully specified
B11: cr971 (nucleic acid)
guide: B1 guide with G63A, A65T, T72G, A86C
modifications: listed as DNA, chemistry not fully specified
B12: cr365 (nucleic acid)
guide: B1 guide with T54A, T72G, A86C
modifications: listed as DNA, chemistry not fully specified
B13: cr121 (nucleic acid)
guide: B1 guide with A59T, T61A, A68T, T70A, T72G, A86C
modifications: listed as DNA, chemistry not fully specified
B14: cr348 (nucleic acid)
guide: B1 guide with A21G, T72G, A86C
modifications: listed as DNA, chemistry not fully specified
B15: cr771 (nucleic acid)
guide: B1 guide with A65G, T72C, A86G
modifications: listed as DNA, chemistry not fully specified
B16: cr302 (nucleic acid)
guide: B1 guide with T61G, A68C, T72G, C73T, A74C, T84G, G85A, A86C
modifications: listed as DNA, chemistry not fully specified
B17: cr510 (nucleic acid)
guide: B1 guide with A59T, C60G, G69C, T70A, T72G, A86C
modifications: listed as DNA, chemistry not fully specified
B18: cr655 (nucleic acid)
guide: B1 guide with T54C, T72G, A86C
modifications: listed as DNA, chemistry not fully specified
B19: cr606 (nucleic acid)
guide: B1 guide with C60G, G69C, T72G, A74C, C75T, G83A, T84G, A86C
modifications: listed as DNA, chemistry not fully specified
B20: cr980 (nucleic acid)
guide: B1 guide with T53C, T72G, A86C
modifications: listed as DNA, chemistry not fully specified
B21: cr428 (nucleic acid)
guide: B1 guide with A64C, A66T, T72G, A86C
modifications: listed as DNA, chemistry not fully specified
B22: cr557 (nucleic acid)
guide: B1 guide with A19C, T72G, A86C
modifications: listed as DNA, chemistry not fully specified
B23: cr592 (nucleic acid)
guide: B1 guide with C45T, G48A, T72G, A86C
modifications: listed as DNA, chemistry not fully specified
B24: cr715 (nucleic acid)
guide: B1 guide with A31G, T72G, A86C
modifications: listed as DNA, chemistry not fully specified
B25: cr433 (nucleic acid)
guide: B1 guide with A66T, T72G, A86C
modifications: listed as DNA, chemistry not fully specified
B26: cr464 (nucleic acid)
guide: B1 guide with A59C, T70G, T72G, G77A, C81T, A86C
modifications: listed as DNA, chemistry not fully specified
B27: cr701 (nucleic acid)
guide: B1 guide with T72G, G79C, A86C
modifications: listed as DNA, chemistry not fully specified
B28: cr377 (nucleic acid)
guide: B1 guide with T56G, T72G, A86C
modifications: listed as DNA, chemistry not fully specified
B29: cr619 (nucleic acid)
guide: B1 guide with A64G, T72G, A86C
modifications: listed as DNA, chemistry not fully specified
B30: cr941 (nucleic acid)
guide: B1 guide with C60A, T62G, A67C, G69T, T72A, A86T
modifications: listed as DNA, chemistry not fully specified
B31: cr113 (nucleic acid)
guide: B1 guide with A55T, T72G, A86C
modifications: listed as DNA, chemistry not fully specified
B32: cr018 (nucleic acid)
guide: B1 guide with G7A, T72G, A86C
modifications: listed as DNA, chemistry not fully specified
B33: cr144 (nucleic acid)
guide: B1 guide with A59T, C60G, T62A, A67T, G69C, T70A, T72G, A86C
modifications: listed as DNA, chemistry not fully specified
B34: cr898 (nucleic acid)
guide: B1 guide with A32C, A65G, T72G, A86C
modifications: listed as DNA, chemistry not fully specified
B35: cr603 (nucleic acid)
guide: B1 guide with A65G, A66C, T72G, A86C
modifications: listed as DNA, chemistry not fully specified
B36: cr690 (nucleic acid)
guide: B1 guide with T27G, T72G, A86C
modifications: listed as DNA, chemistry not fully specified
B37: cr559 (nucleic acid)
guide: B1 guide with T72G, C73T, G85A, A86C
modifications: listed as DNA, chemistry not fully specified
B38: cr354 (nucleic acid)
guide: B1 guide with A59G, T70C, T72A, C73T, G85A, A86T
modifications: listed as DNA, chemistry not fully specified
B39: cr494 (nucleic acid)
guide: B1 guide with A67T, T72G, A86C
modifications: listed as DNA, chemistry not fully specified
B40: cr730 (nucleic acid)
guide: B1 guide with T72G, C73G, A74G, C75G, G83C, T84C, G85C, A86C
modifications: listed as DNA, chemistry not fully specified
B41: cr632 (nucleic acid)
guide: B1 guide with A64C, A66G, T72G, A86C
modifications: listed as DNA, chemistry not fully specified

tested on: K562 CRISPRi cells; test: Constant region variant library pooled growth screen, K562; format: cell-based, human; details: sgRNA constant region variants; activity relative to the original, un-modified constant region cr995
Procedure, shortened: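 Growth screens in K562 CRISPRi cells were harvested 4-8 days post-selection at >2000× library coverage. Each variant's phenotype was referenced to the unmodified constant region with the same targeting sequence.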

Molecule | Mean relative activity
B1 | 1.072
B2 | 1.072
B3 | 1.075

same assay, conditions: sgRNA constant region variants; relative to the original, un-modified constant region cr995 (= 1)

Molecule | Mean relative activity
B4 | 1.018
B5 | 1.017
B6 | 1.014
B7 | 1.01
B8 | 1.012
B9 | 1.008
B10 | 1 .01760152
B11 | 1.017
B12 | 1.007
B13 | 1.014
B14 | 1.008
B15 | 1.007
B16 | 1.016
B17 | 1.007
B18 | 1.016
B19 | 1.007
B20 | 1.014
B21 | 1.013
B22 | 1.018

Molecule | Mean relative activity
B23 | 1.017
B24 | 1.008
B25 | 1.012
B26 | 1.017
B27 | 1.016
B28 | 1.012
B29 | 1.015
B30 | 1.016
B31 | 1.016
B32 | 1.017
B33 | 1.007
B34 | 1.014
B35 | 1.018
B36 | 1.011
B37 | 1.007
B38 | 1.016
B39 | 1.016
B40 | 1.018
B41 | 1.008

— US20220259593A1, “CONTROL OF MAMMALIAN GENE DOSAGE USING CRISPR” (The Regents of the University of California, priority 2019, published 2022)
